Assay results taken from the DeepSol protein solubility set.

assay: soluble on expression in E. coli; label from the status in PepcDB or PDB records

Row | Sequence | soluble on expression in E. coli
1 | MAHHHHHHMSSSEKKHAAWVDVVAGGFGGALAKSLLSPFQRIVVLQQLGQHKSYSIAQLVHHIYAQEGLKSFWRGNLTSMVIRVPYSGIQFLLYTQLKFLFQDWLDRRHAAAALPTHQADGSSDNS | soluble
2 | MPISRYYDVKRDEKGERYLEPYVTGFLLLRLPLLNKGTAFTEEERRLLGLEGLLPPHVHTLEEQKERVYRRYRLIQSPLEKHIYLRHLQDRNEVLFYALVVDHLEEMLPILYTPTVGEAVREFSHIYRYPRGFTASTKNIDRIDEALQNVPLEDVRLIVATDSSAILGIGDQGYGGMAISIGKLTLYTAAGGVGPDKTLPVELDVGTDREDLLKDPLYLGVRHRRLRGEEYFRFLDRFVEAVRRRYPKALIQWEDFAKETAFQVLERYRKVIPSFNDDIQGTGAVALAGVLSACRLKGERLSDQVVVVYGAGAGGIGVAWALVEGMKREGLSEEEAKARVLVLDSKGLLVEGRSMEDYKRPYAQRPERLWGWRFAGEYPNLLETITNARATVLLGLSGQAGSFTEPVVRAMLANTPRPVIFPLSNPTSATEALPDDLVYWTEGRALVAAGSPFPPVGFKGRTVPIGQGNNAFVFPGLGLGAVLSRAREVTDGMVLEAAYALYDYTREHFPERIYPPVGRLREVSPYVAARVMQRALEEGVAEEARVQGLTLEALLDFVKSRFWEPRYLPYRPAPVI | soluble
3 | MGKVYVFDHPLIQHKLTYIRDKNTGTKEFRELVDEVATLMAFEITRDLPLEEVEIETPVSKARAKVIAGKKLGVIPILRAGIGMVDGILKLIPAAKVGHIGLYRDPQTLKPVEYYVKLPSDVEERDFIIVDPMLATGGSAVAAIDALKKRGAKSIKFMCLIAAPEGVKAVETAHPDVDIYIAALDERLNDHGYIVPGLGDAGDRLFGTK | soluble
4 | MSLKPNYLEERICLNVLANSVENAQACYEAAEGHVVLGVLSKNYETDEAAIDDMKKYQAATNNALSVGLGAGDPNQSQMVARLSEVLQPQHVNQVFTGVGASRALLRQDETVINGLVSPTGKVGYVNIATGPLSSGAPAAEVPIETAIKLLKDMGGSSIKYFPMKGLAHKEEYQAVAAACAKYDFYLEPTGGIDLENFEEIVQIAVDAGVKKIIPHVYSSIIDQETGDTRTEDVKTLLTMMKKTLNK | not soluble
5 | MGSDKIHHHHHHMIPEDVLAFFDLKQGRRPKAILNVLVGKMTVSALFWGLEYDILEYLNFWKTIDTTSFLENVDRAVEGGFLAKKDELIYLTEAGQQKQFSCTTPTPFIKKVRLDEAIDLLLLANQVISEFSFKNNRYIPVSDNLRINVILKNWFKQLKSRNHHTTDIVQKYTQGLDELLSQLQQHDADILLSYLPNHVDPGWTIDQLAQAFGISKFQMELKIRLIFSKIISDAVLTKIAPFVDLLNSTIKENVMPDSTYQTWQLIRQGKTVDEVARLKHVKTNTVKEHILMAAILDSNFPFDKFVRFNFEIGKHPTEVDFRSIQSQIADITFFDFRLIQIRKIKEQQNNNGNR | not soluble
6 | MGSDKIHHHHHHMPTMIPAASRAMAVFEVFAREKRELSNSDMARLLSLPESSTSDLLHTLHSLGYLMRTTRTRRFYPTGRLSEIARQIAENDPLTTVAQEAIEQVSARTNESVFFGVLDGTAVKVMAVQASRLPLRYIIEVGYRAALHASALGKGLLGLLPPEEARETLAKSSLRAVTAHTVVDIDTLMAQVAKGRKRGWYEAHEEGSEGVHGLAVTGWLGGQAAGISLAGPAERMKKNHDAYLAALIEVRDALMSEE | not soluble
7 | MTDRLIIQGGKKLSGTLQVDGAKNSAVALIPAAILAESEVVLEGLPDISDVYTLYDILEELGGSVRYDNKTAIIDPTDMLSMPLPSGNVKKLRASYYLMGAMLGRFKKAVIGLPGGCYLGPRPIDQHIKGFEALGAKVTNEQGAIYLRADELKGARIYLDVVSVGATINIMLAAVRAKGKTVIENAAKEPEIIDVATLLTNMGAIIKGAGTDTIRITGVDHLHGCHHTIIPDRIEAGTFMVLAAASGKGIRIENVIPTHLEGIIAKLTEMGVPMDIEEDSIFIGEVENIKKVDIKTYAYPGFPTDLQQPLTALLTRAEGSSVITDTIYPSRFKHIAELERMGGKFKLEGRSAVISGPAKLQGSKVTATDLRAGAALVIAGLLAEGRTEIHGVEHIERGYSKIIEKLSAIGADITRSSTAETNI | not soluble
8 | MVHKSVESPAFSASIEDYALIGDQQSAALVARDGSIDWLCLPRFDSPACFAALLGDEHNGKWRIAPKGAGPCTRRAYRTDSLVLDSEWDTPEGTLRVTDLMPQRDSAPDLVRIVEGLRGRVTVRSAIRLRFDYGLEHHHHHH | soluble
